# From article PMC9091222, “Profiling of hMPV F-specific antibodies isolated from human memory B cells” (Nature Communications, 2022)
# Assays:
# [1] = biological target: unprocessed hMPV PreF trimer (wild-type hMPV F ectodomain trimer, strain B2, C-terminal GCN4 trimerization … (Human metapneumovirus, subgroup B2 …, UniProt Q6W8S4, strain)); experiment: cell-based or functional assay
# [2] = biological target: T1, processed stabilized hMPV PreF trimer (115BV), co-expressed with furin (Human metapneumovirus, subgroup B2 …, UniProt Q6W8S4, stabilised); experiment: cryo-EM structure; M4B06 Fab incubated with processed PreF (115BV) trimer (trimer:Fab = 1:3) for 1 h at 4 °C, purified on Superdex 200 Increase in 25 mM HEPES pH 7.5, 150 mM NaCl; map at 3.75 Å, no symmetry imposed; Fab not built; conditions: both partners purified
# T1 construct: F2 chain of the fusion (F) glycoprotein of human metapneumovirus, strain B2, after cleavage by co-expressed furin; disulfide-linked to F1; F1 chain (ectodomain part) of the fusion (F) glycoprotein of human metapneumovirus, strain B2, after cleavage by co-expressed furin; also called processed PreF; prefusion-stabilized hMPV F trimer 115BV; source: Expi293, co-transfected with furin at 1:1, …
Binder,"neutralization IC50, hMPV A virus (plaque reduction neutralization assay) [1]","neutralization IC50, hMPV B virus (plaque reduction neutralization assay) [1]",stoichiometry N [2]
"M4B06 IgG (antibody, V domains shown) VH: EVQLLESGGGFVQPGGSLRLSCVVTGFTFSNYAMCWVRQAPGKGPEWVSGIGGSVGTTYYADSVKGRFTISRDNSKNTLYLQMSGLRAEDTARYYCAKVPSFFVFEDGFDMWGQGTVVTVSS VL: QSVLTQPPSASGNPGQRVTISCYGSGSNIGNNYVHWFRQLPGTAPRLLIYNTDILVPGVPDRFSGSESGTSASLAISGLQSGDEADYFCAAWDDTLNGYVFGPGTTVTVL",3.5 ng/mL,2.2 ng/mL,–
"M4B06 Fab (Fab, V domains shown, as the heavy chain of m4 before CDR3 (germline IGHV3-23*01); heavy chain CDR3; rest of VH after CDR3 and CH1 of the Fab; as the light chain of m4 before CDR3 (germline IGLV1-44*01); light chain CDR3; as the light chain of m4 after CDR3; The Fab was not built in the cryo-EM density map; also called M4B06 monovalent Fab; source: recombinantly purified) VH: EVQLLESGGGFVQPGGSLRLSCVVTGFTFSNYAMCWVRQAPGKGPEWVSGIGGSVGTTYYADSVKGRFTISRDNSKNTLYLQMSGLRAEDTARYYCAKVPSFFVFEDGFDMWGQGTVVTVSS VL: QSVLTQPPSASGNPGQRVTISCYGSGSNIGNNYVHWFRQLPGTAPRLLIYNTDILVPGVPDRFSGSESGTSASLAISGLQSGDEADYFCAAWDDTLNGYVFGPGTTVTVL",–,–,3 Fabs per PreF trimer
